Experimental data as given in publication doi:10.1101/2024.06.25.600625 (bioRxiv, 2024).

T1: N-terminally FlAsH-labeled CDC37 (UniProt Q16543 1-378, FlAsH-EDT2 label on the N-terminal tetra-cysteine tag)
T1 sequence: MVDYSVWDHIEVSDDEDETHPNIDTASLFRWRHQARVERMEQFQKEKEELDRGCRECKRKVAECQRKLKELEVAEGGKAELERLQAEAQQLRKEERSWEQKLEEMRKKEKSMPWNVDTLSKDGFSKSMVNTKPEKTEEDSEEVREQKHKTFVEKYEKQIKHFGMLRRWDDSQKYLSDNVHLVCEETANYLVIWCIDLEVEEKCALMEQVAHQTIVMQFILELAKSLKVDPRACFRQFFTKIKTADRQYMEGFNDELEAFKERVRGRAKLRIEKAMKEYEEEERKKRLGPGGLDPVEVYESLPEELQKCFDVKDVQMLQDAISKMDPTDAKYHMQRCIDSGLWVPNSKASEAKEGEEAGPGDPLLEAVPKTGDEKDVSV

B1: C-terminally FlAsH-labeled p23 (natural protein)
chain: MQPASAKWYDRRDYVFIEFCVEDSKDVNVNFEKSKLTFSCLGGSDNFKHLNEIDLFHCIDPNDSKHKRTDRSILCCLRKGESGQSWPRLTKERAKLNWLSVDFNNWKDWEDDSDEDMSNFDRFSEMMNNMGGDEDVDLPEVDGADDDSQDSDDEKMPDLE
modifications: FlAsH-EDT2 label on the C-terminal tetra-cysteine tag
B2: unlabeled p23 (natural protein)
chain: B1 chain
B3: human Hsp90α Y38F,Y61F,Y197E (natural protein)
chain: not shown
B4: human Hsp90α Y38E,Y61F,Y197E (natural protein)
chain: not shown
B5: human Hsp90α Y38E (natural protein)
chain: not shown
B6: human Hsp90α Y38F,Y61E,Y197E (natural protein)
chain: not shown

Legend:
Experiment in all cases: fluorescence polarisation
wild-type human Hsp90α = wild-type human Hsp90α (human, UniProt P07900 1-732)
[1] = target: B6
[2] = target: B4
human Hsp90α Y38F = human Hsp90α Y38F (human, UniProt P07900 1-732, Y38F)
human Hsp90α Y61E = human Hsp90α Y61E (human, UniProt P07900 1-732, Y61E)
human Hsp90α Y61F = human Hsp90α Y61F (human, UniProt P07900 1-732, Y61F)
human Hsp90α Y197E = human Hsp90α Y197E (human, UniProt P07900 1-732, Y197E)
human Hsp90α Y197F = human Hsp90α Y197F (human, UniProt P07900 1-732, Y197F)
[3] = target: B3
[4] = target: human Hsp90α Y38F,Y61F,Y197F (human, UniProt P07900 1-732, Y38F | Y61F | Y197F)
[5] = target: T1, N-terminally FlAsH-labeled CDC37
[6] = target: B1

Binder: B1
binding result (wild-type human Hsp90α): binds | binding result [1]: binds | binding result [2]: binds | binding result (human Hsp90α Y38F): binds | binding result (human Hsp90α Y61E): binds | binding result (human Hsp90α Y61F): binds | binding result (human Hsp90α Y197E): binds | binding result (human Hsp90α Y197F): binds | binding result [3]: binds | binding result [4]: binds

Binder: B2
binding result (wild-type human Hsp90α): binds

Binder: B3
fold increase of KD against all other Hsp90 variants [5]: 2 fold

Binder: B4
fold increase of KD against all other Hsp90 variants [5]: 2 fold

Binder: B5
fold increase of KD (reference not named, wild type implied) [6]: 3.5 fold

Binder: B6
fold increase of KD against all other Hsp90 variants [5]: 2 fold
